The values below come from the RNAGym collection of RNA variant scans (doi:10.7554/elife.80360).

B1: CPEB3 Ribozyme (parent)
chain: GGGGGCCACAGCAGAAGCGUUCACGUCGCGGCCCCUGUCAGAUUCUGGUGAAUCUGCGAAUUCUGCUGU

In the data set the parent is B1. Kind of data set: self-cleavage, relative activity (ratio to wild type); higher = more cleavage; co-transcriptional.
Regarding AGGGGCCACAGCAGAAACGUUCACGUCGCGGCCCCUGUCAGAUUCUGGUGAAUCUGCGAAUUCUGCUGU [G1A G17A], the self-cleavage was found to be 0.0759.
As for AGGGGCCACAGCAGAAUCGUUCACGUCGCGGCCCCUGUCAGAUUCUGGUGAAUCUGCGAAUUCUGCUGU [G1A G17U], the figure is 0.047; as for AGGGGCCACAGCAGAAGCGUUCACGUCCCGGCCCCUGUCAGAUUCUGGUGAAUCUGCGAAUUCUGCUGU [G1A G28C], 0.0192; as for AGGGGCCACAGCUGAAGCGUUCACGUCGCGGCCCCUGUCAGAUUCUGGUGAAUCUGCGAAUUCUGCUGU [G1A A13U], 0.0681.
AGGGGCCACAGCGGAAGCGUUCACGUCGCGGCCCCUGUCAGAUUCUGGUGAAUCUGCGAAUUCUGCUGU [G1A A13G]: the self-cleavage was 0.0336.
As for AGGGGCCACAGCCGAAGCGUUCACGUCGCGGCCCCUGUCAGAUUCUGGUGAAUCUGCGAAUUCUGCUGU [G1A A13C], the figure is 0.0638.
As for AGGGGGCACAGCAGAAGCGUUCACGUCGCGGCCCCUGUCAGAUUCUGGUGAAUCUGCGAAUUCUGCUGU [G1A C6G], the figure is 0.0647; as for AGGGGACACAGCAGAAGCGUUCACGUCGCGGCCCCUGUCAGAUUCUGGUGAAUCUGCGAAUUCUGCUGU [G1A C6A], 0.0849; as for AGGGGUCACAGCAGAAGCGUUCACGUCGCGGCCCCUGUCAGAUUCUGGUGAAUCUGCGAAUUCUGCUGU [G1A C6U], 0.105.
AGGGGCCACAGCAGAAGCGUUCACGUCGCGGCCCCUGUCAGAUUCUGGUGAGUCUGCGAAUUCUGCUGU [G1A A52G]: the self-cleavage was determined as 0.0619.
Under AGGGGCCACAGCAGAAGCGUUCACGUCGCGGCCCCUGUCAGAUUCUGGUGAUUCUGCGAAUUCUGCUGU [G1A A52U] stands 0.0595; under AGGGGCCACAGCAGAAGCGUUCACGUCGCGGCCCCUGUCAGAUUCUGGUGACUCUGCGAAUUCUGCUGU [G1A A52C], 0.113.
For the variant AGCGGCCACAGCAGAAGCGUUCACGUCGCGGCCCCUGUCAGAUUCUGGUGAAUCUGCGAAUUCUGCUGU [G1A G3C], the self-cleavage is 0.0286.
As for AGGGGCCACAGCAGAAGCGUUCACGUCGCGGUCCCUGUCAGAUUCUGGUGAAUCUGCGAAUUCUGCUGU [G1A C32U], the figure is 0.12; as for AGGGGCCACAGCAGAAGCGUUCACGUCGCGGACCCUGUCAGAUUCUGGUGAAUCUGCGAAUUCUGCUGU [G1A C32A], 0.0486.
As for AGGGGCCACAGCAGAAGCGUUCACGUCGCGGGCCCUGUCAGAUUCUGGUGAAUCUGCGAAUUCUGCUGU [G1A C32G], the figure is 0.0331.
Consider AGGGGCCACCGCAGAAGCGUUCACGUCGCGGCCCCUGUCAGAUUCUGGUGAAUCUGCGAAUUCUGCUGU [G1A A10C], for which the self-cleavage worked out at 0.117.
Under AGGGGCCACAGCAGAAGCGUUCACGUCGCGGCCCCUGUCCGAUUCUGGUGAAUCUGCGAAUUCUGCUGU [G1A A40C] stands 0.028; under AGGGGCCACAGCAGAAGCGUUCACGUCGCGGCCCCUGUCUGAUUCUGGUGAAUCUGCGAAUUCUGCUGU [G1A A40U], 0.0506.
Under AGGGGCCACAGCAGAAGCGUUCACGUCGCGGCCCCUGUCAGAUUCUGGUGAAUAUGCGAAUUCUGCUGU [G1A C54A] stands 0.0906.
Turning to AGGGGCCACAGCAGAAGCGUUCACGUCGCGGCCCCUGUCAGAUUCUGGUGAAUGUGCGAAUUCUGCUGU [G1A C54G], the self-cleavage turned out to be 0.0801.
Under AGGGGCCACAGCAGAAGCGUUCAUGUCGCGGCCCCUGUCAGAUUCUGGUGAAUCUGCGAAUUCUGCUGU [G1A C24U] stands 0.0626; under AGGGGCCACAGCAGAAGCGUUCAGGUCGCGGCCCCUGUCAGAUUCUGGUGAAUCUGCGAAUUCUGCUGU [G1A C24G], 0.163; under AGGGGCCACAGCAGAAGCGUUCAAGUCGCGGCCCCUGUCAGAUUCUGGUGAAUCUGCGAAUUCUGCUGU [G1A C24A], 0.0536.
As for AGGGGCCACAGGAGAAGCGUUCACGUCGCGGCCCCUGUCAGAUUCUGGUGAAUCUGCGAAUUCUGCUGU [G1A C12G], the figure is 0.0843; as for AGGGGCCACAGAAGAAGCGUUCACGUCGCGGCCCCUGUCAGAUUCUGGUGAAUCUGCGAAUUCUGCUGU [G1A C12A], 0.0768; as for AGGAGCCACAGCAGAAGCGUUCACGUCGCGGCCCCUGUCAGAUUCUGGUGAAUCUGCGAAUUCUGCUGU [G1A G4A], 0.28.
Under AGGCGCCACAGCAGAAGCGUUCACGUCGCGGCCCCUGUCAGAUUCUGGUGAAUCUGCGAAUUCUGCUGU [G1A G4C] stands 0.0471; under AGGGGCCACAGCAAAAGCGUUCACGUCGCGGCCCCUGUCAGAUUCUGGUGAAUCUGCGAAUUCUGCUGU [G1A G14A], 0.0754; under AGGGGCCACAGCACAAGCGUUCACGUCGCGGCCCCUGUCAGAUUCUGGUGAAUCUGCGAAUUCUGCUGU [G1A G14C], 0.0574.
Regarding AGGGGCCACAGCAGAAGCGUUCACGUCGCGGCGCCUGUCAGAUUCUGGUGAAUCUGCGAAUUCUGCUGU [G1A C33G], the self-cleavage turned out to be 0.0474.
As for AGGGGCCACAGCAGAAGCGUUCACGUCGCGGCUCCUGUCAGAUUCUGGUGAAUCUGCGAAUUCUGCUGU [G1A C33U], the figure is 0.0123.
As for AGGGGCCACAGCAGAAGCGUUCUCGUCGCGGCCCCUGUCAGAUUCUGGUGAAUCUGCGAAUUCUGCUGU [G1A A23U], the figure is 0.184; as for AGGGGCCACAGCAGAAGCGUUCACGUCGCGGCCCCUGUCAGAUUCUGGUGAAUCUGCGCAUUCUGCUGU [G1A A59C], 0.0603.
Under AGGGGCCACAGCAGAAGCGUUCACGUCGCGGCCCCUGUCAGAUUCUGGUGAAUCUGCGGAUUCUGCUGU [G1A A59G] stands 0.167; under AGGGGCCACAGCAGAAGCGUUCACGUCGCGGCCCCUGUCAGAUUCUGGUGAAUCUGCGUAUUCUGCUGU [G1A A59U], 0.0722.
Turning to AGGGGCGACAGCAGAAGCGUUCACGUCGCGGCCCCUGUCAGAUUCUGGUGAAUCUGCGAAUUCUGCUGU [G1A C7G], the self-cleavage is 0.0966.
With AGGGGCCACAGCAGAAGCGUUCACGUCGCGGCCCCUGUCAGAUUGUGGUGAAUCUGCGAAUUCUGCUGU [G1A C45G], the self-cleavage stood at 0.0789.
In the case of AGGGGCCACAGCAGAAGCGUUCACGUCGCGGCCCCUGUCAGAUUUUGGUGAAUCUGCGAAUUCUGCUGU [G1A C45U], the self-cleavage was determined as 0.0709.
